Laboratory results reported in publication doi:10.1101/2024.11.15.623645 (bioRxiv, 2024).

B1: 2G12 soluble IgG mAb (antibody, V domains shown)
VH: EVQLVESGGGLVKAGGSLILSCGVSNFRISAHTMNWVRRVPGGGLEWVASISTSSTYRDYADAVKGRFTVSRDDLEDFVYLQMHKMRVEDTAIYYCARKGSDRLSDNDPFDAWGPGTVVTVSP
VL: DVVMTQSPSTLSASVGDTITITCRASQSIETWLAWYQQKPGKAPKLLIYKASTLKTGVPSRFSGSGSGTEFTLTISGLQFDDFATYHCQHYAGYSATFGQGTRVEIK

How the values were obtained:
Assay in all cases: SPR
[1] = target: 2G12 IgM BCR complex (membrane IgM with Igα/Igβ) (human | human (endogenous in Ramos)) (UniProt P11912)
[2] = target: 2G12 IgG BCR complex (membrane IgG with Igα/Igβ) (human | human (endogenous in Ramos)) (UniProt P11912)
[3] = target: HIV-1 Env gp140 trimer CH505TF v4.1 (non-biotinylated) (HIV-1 clade C, CH505 transmitted/founder, UniProt M4M3Q1, stabilised)

Molecule	kon [1] [M⁻¹ s⁻¹]	kon [2] [M⁻¹ s⁻¹]	binding result [3]
HIV-1 Env gp140 trimer CH505TF v4.1 (non-biotinylated)	> 100000	> 100000	–
HIV-1 Env gp140 trimer CH848 (non-biotinylated)	> 100000	> 100000	–
HIV-1 Env gp140 trimer CAP256 (non-biotinylated)	> 100000	> 100000	–
HIV-1 Env gp140 trimer JRFL (non-biotinylated)	> 100000	> 100000	–
HIV-1 Env gp140 trimer BG505 GT1.2 (non-biotinylated)	> 100000	> 100000	–
B1	–	–	binds
